The target of assay [1] is endophilin SH3 (SH3G2_HUMAN), Q99962. As to the kind of experiment: SPOT array.
The target in assay [2] is T1, amphyphisin SH3 (AMPH_HUMAN), P49418.
T1 chain: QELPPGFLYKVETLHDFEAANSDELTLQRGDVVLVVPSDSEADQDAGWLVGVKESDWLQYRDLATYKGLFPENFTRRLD
Put plainly: SPOT array.

Regarding ATDAPSRPGRLAGR [Q9H6H6 405-418], the normalised SPOT signal, Boehringer light units (BLU); mean over the file's lines of this peptide in assay [1] was 147; in assay [2] it was 5530.
Take QLSSPIRPPKYYTY [O43163 368-382]: the normalised SPOT signal, Boehringer light units (BLU); mean over the file's lines of this peptide was 2940 in assay [1] and 227 in assay [2].
The like results for QLQAPDRPSRELLQ [Q9H6Q4 405-418] were, in that order, 377 and 3320.
The like results for QQFRLRRPSGITWP [Q96RY6 139-152] were, in that order, 116 and 61.5.
The matching figures for QPGSPRKPPMDEKS [P08263 197-211]: 68.3 and 59.8.
Turning to QLRPPPKPPLPAPD [Q9BZE0 329-343], the normalised SPOT signal, Boehringer light units (BLU); mean over the file's lines of this peptide in assay [1] is 4110; in assay [2], 825.
The matching figures for QKQDLRRPKIHGAV [Q9UII6 5-18]: 85.7 and 56.3.
The like results for QQPPPRRPPQAPEG [Q9UPY6 301-315] were, in that order, 430 and 744.
The like results for QQNLPKRPTSLPLN [Q13873 748-761] were, in that order, 520 and 47.8.
On to ATAFLQRPSRAGSL [Q9C0A3 966-979], for which the normalised SPOT signal, Boehringer light units (BLU); mean over the file's lines of this peptide in assay [1] turned out to be 298; in assay [2] it was 15700.
As to QILSPPRPPTSPSF [Q9BRZ8 226-240], the normalised SPOT signal, Boehringer light units (BLU); mean over the file's lines of this peptide in assay [1] was found to be 4830; in assay [2], 75.8.
Consider QNQSIRRPSRQLAP [O75116 1371-1384], for which the results for the normalised SPOT signal, Boehringer light units (BLU); mean over the file's lines of this peptide in assay [1] and in assay [2] were 665 and 1460, respectively.
The matching figures for QLVILRRPERPMED [Q96NX7 585-598]: 16.7 and 31.8.
Take QPQGPPRPPQGGRP [P04280 312-326]: the values for the normalised SPOT signal, Boehringer light units (BLU); mean over the file's lines of this peptide in assay [1] and in assay [2] were 210 and 58.6, respectively.
The matching figures for QPVNPPRPFKHSER [Q9Y381 268-281]: 1250 and 275.
The like results for QPQSLRRPLWLSHS [Q9H8J7 161-174] were, in that order, 1380 and 66.8.
The matching figures for QQQLLQRPPRDAQQ [O15350 392-405]: 106 and 3270.
QHYTLGRPGRAPRR [O60275 1399-1412]: the figures for the normalised SPOT signal, Boehringer light units (BLU); mean over the file's lines of this peptide in assay [1] and in assay [2] were 73 and 565, respectively.
On to QPGSPRKPPADAKA [Q16772 198-212], for which the normalised SPOT signal, Boehringer light units (BLU); mean over the file's lines of this peptide in assay [1] amounted to 46.1; in assay [2], 36.6.
The like results for QKFSLRRPLQTAMI [Q96JF9 85-98] were, in that order, 73.5 and 64.3.
The like results for QPDGPARPPGMAPS [Q96KZ1 72-86] were, in that order, 39.7 and 63.5.
The like results for QQPLPRRPGHDDGQ [Q16360 104-117] were, in that order, 106 and 36.8.
In the case of ATSRFYRPPRSSHS [Q9C0B5 150-163], the normalised SPOT signal, Boehringer light units (BLU); mean over the file's lines of this peptide in assay [1] is 400; in assay [2] it was 5620.
The like results for QQKPPKRPPIEASV [Q9BZS0 76-90] were, in that order, 822 and 57.3.
The like results for QNRPLIRPKKRLIV [P15976 237-250] were, in that order, 1510 and 43.3.
The matching figures for QPLGPAKPPAQQTG [Q9Y6V0 327-341]: 63.4 and 52.7.
In the case of QPALLKRPQLELYV [Q9Y477 106-119], the normalised SPOT signal, Boehringer light units (BLU); mean over the file's lines of this peptide in assay [1] came to 52.6; in assay [2] it was 28.2.
The matching figures for QLWDIRRPDRSERM [Q96S15 319-332]: 692 and 2300.
The like results for QIRILKRPTSNGVV [Q9Y403 46-59] were, in that order, 148 and 6.4.
The matching figures for QQPGPAKPPTQQVG [Q9Y6V0 366-380]: 30.3 and 62.4.
Take ATSHFYRPPRSSHS [Q9ULC8 29-42]: the figures for the normalised SPOT signal, Boehringer light units (BLU); mean over the file's lines of this peptide in assay [1] and in assay [2] were 218 and 8300, respectively.
The like results for QPLEPKRPPPPRPV [O43426 1101-1114] were, in that order, 124 and 28.6.
The like results for QPLGPRRPMRPVGH [Q07092 192-205] were, in that order, 2870 and 10200.
The like results for QKDVIRRPTFVPQW [Q9P0Y7 137-150] were, in that order, 91.5 and 22.8.
In the case of QRSHFKRPRELEDA [P33897 430-443], the figures for the normalised SPOT signal, Boehringer light units (BLU); mean over the file's lines of this peptide in assay [1] and in assay [2] were 29.5 and 64.1, respectively.
The matching figures for QKTRPIKPPPDSQE [Q9H5W5 105-119]: 36.3 and 42.1.
Regarding QPQGPPRPPQGDKP [Q15215 74-88], the normalised SPOT signal, Boehringer light units (BLU); mean over the file's lines of this peptide worked out at 94.4 in assay [1] and 84.1 in assay [2].
The like results for QLFTPNRPKKREIY [Q9BWY5 227-240] were, in that order, 698 and 165.

The values above are taken from PMC314469, “Protein Interaction Networks by Proteome Peptide Scanning” (PLoS Biology, 2004).
